Earlier results in paper PMC3138048.

Biological target: Lys199 (UniProt position 223, AKQRLKCASLQ)
Test: chemical modification

Substance: Human serum albumin (HSA) (Homo sapiens)
- pKa: 7.9
